The values below come from patent US20260028403A1 (Zymeworks, published 2026).

Assay [1] deals with T1, CD28 on primary human T cells (human, UniProt P10747 19-220). Briefly: cell-based or functional assay.
Assay [2] deals with T1, CD28 on primary human T cells. In words: cell-based or functional assay. This is another data set of the same source.
Assay [3] concerns the target T2, Recombinant human/cynomolgus/rhesus macaque CD28 mouse IgG2a Fc fusion protein (Acro Biosystems) (human/cynomolgus/rhesus macaque, UniProt P10747 19-152).
T2 construct: bought; also called huCD28
In words: SPR, in-format anti-CD28 variants, huCD28.

B1: v37683 (trispecific antibody, human IgG1, kappa, L234A L235A)
heavy 1: not shown
heavy 2: QVQLVESGGGLVQPGGSLRLSCSVSGIDLSSNPMIWVRQAPGKGLQYIGIIDTDGSTYYADWAKGRFTISKDSTTVYLQINSPRAEDTAVYYCARRLHGSSNGYYDDLWGQGTLVTVSSGGGGSGGGGSGGGGSGGGGSDGQMTQSPSSVSASVGDRVTITCQASQSIYSYLSWYQQKPGQRPKLLIYKASTLASGVPSRFSGSGSGTDFTLTISSVQPEDFATYYCQQGYTVTNVDKNTFGGGTKVEIKAAEPKSSDKTHTCPPCPAPEAAGGPSVFLFPPKPKDTLMISRTPEVTCVVVSVSHEDPEVKFNWYVDGVEVHNAKTKPREEQYNSTYRVVSVLTVLHQDWLNGKEYKCKVSNKALPAPIEKTISKAKGQPREPQVYVLPPSRDELTKNQVSLLCLVKGFYPSDIAVEWESNGQPENNYLTWPPVLDSDGSFFLYSKLTVDKSRWQQGNVFSCSVMHEALHNHYTQKSLSLSPG
light: DIQMTQSPSSLSASVGDRVTITCRASESVEYYVTSLMQWYQQKPGKAPKLLIYAASNVDSGVPSRFSGSGSGTDFTLTISSLQPEDIATYYCQQSRKVPFTFGGGTKVEIKRTVAAPSVFIFPPSDEQLKSGTASVVCLLNNFYPREAKVQWKVDNALQSGNSQESVTEQDSKDSTYSLSSTLTLSKADYEKHKVYACEVTHQGLSSPVTKSFNRGEC
notes: also called v37638 format, CD28 VH P1058A
For orientation: Kd means the concentration at which binding is half-saturated. The koff is a measure of how fast the partners let go of each other. One may read the kon as the rate constant with which the complex forms. On to B1, for which, in assay [1], the “IC50, T cell-dependent cytotoxicity on SNU 601” value turned out to be 0.00025 nM and the “Maximum Killing (%), SNU 601” value came to 88.6%. Also, in assay [2], the “IL-2 maximum cytokine, T cells alone” value turned out to be 82.9 pg/mL; the “IL-2 maximum cytokine, T cells with SNU 601 cells” value stood at 4030 pg/mL; the “TNFa maximum cytokine, T cells alone” value was found to be 25 pg/mL; the “TNFa maximum cytokine, T cells with SNU 601 cells” value came to 513 pg/mL. Also, in assay [3], the “Fold-change from WT” value was determined as 2.2 fold, the Kd came to 48.6 nM, the off-rate constant (koff) came out at 0.00466 s⁻¹ and the kon stood at 95800 M⁻¹ s⁻¹.

B2: v37684 (trispecific antibody, human IgG1, kappa, L234A L235A)
heavy 1: not shown
heavy 2: QVQLVESGGGLVQPGGSLRLSCSVSGIDLSSNPMIWVRQAPGKGLQYIGIIDTDGSTYYADWAKGRFTISKDSTTVYLQINSPRAEDTAVYYCARRLHGSSNGYYDDLWGQGTLVTVSSGGGGSGGGGSGGGGSGGGGSDGQMTQSPSSVSASVGDRVTITCQASQSIYSYLSWYQQKPGQRPKLLIYKASTLASGVPSRFSGSGSGTDFTLTISSVQPEDFATYYCQQGYTVTNVDKNTFGGGTKVEIKAAEPKSSDKTHTCPPCPAPEAAGGPSVFLFPPKPKDTLMISRTPEVTCVVVSVSHEDPEVKFNWYVDGVEVHNAKTKPREEQYNSTYRVVSVLTVLHQDWLNGKEYKCKVSNKALPAPIEKTISKAKGQPREPQVYVLPPSRDELTKNQVSLLCLVKGFYPSDIAVEWESNGQPENNYLTWPPVLDSDGSFFLYSKLTVDKSRWQQGNVFSCSVMHEALHNHYTQKSLSLSPG
light: DIQMTQSPSSLSASVGDRVTITCRASESVEYYVTSLMQWYQQKPGKAPKLLIYAASNVDSGVPSRFSGSGSGTDFTLTISSLQPEDIATYYCQQSRKVPFTFGGGTKVEIKRTVAAPSVFIFPPSDEQLKSGTASVVCLLNNFYPREAKVQWKVDNALQSGNSQESVTEQDSKDSTYSLSSTLTLSKADYEKHKVYACEVTHQGLSSPVTKSFNRGEC
notes: also called v37638 format, CD28 VH G1064S
With B2, in assay [1], the “IC50, T cell-dependent cytotoxicity on SNU 601” value worked out at 0.00034 nM and the “Maximum Killing (%), SNU 601” value stood at 89.3%. Further, in assay [2], the “IL-2 maximum cytokine, T cells alone” value came to 293 pg/mL; the “IL-2 maximum cytokine, T cells with SNU 601 cells” value amounted to 3430 pg/mL; the “TNFa maximum cytokine, T cells alone” value is 56.2 pg/mL; the “TNFa maximum cytokine, T cells with SNU 601 cells” value turned out to be 516 pg/mL. For the same molecule, in assay [3], the “Fold-change from WT” value stood at 6.4 fold, the Kd was found to be 143 nM, the koff worked out at 0.0113 s⁻¹ and the kon was determined as 80600 M⁻¹ s⁻¹.
